# According to the supplement of paper PMC12042874:
# ± gives the uncertainty stated by the source.
# Experiment: amyloid nucleation score (Sup35N fusion, yeast selection) (log enrichment); library NNK3; higher = more nucleation; inactive = no reads after selection
# In short: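 DiMSum was used to calculate nucleation scores as log enrichment of output over input reads, centred on the mode score of non-aggregating sequences. Sequences with fewer than 100 input reads were not scored. Input and output came from Illumina sequencing of plasmid inserts in psi-negative yeast expressing peptides of 20 random codons fused to Sup35N, induced 24 hours with 100 μM copper sulfate and then grown 7 days at 30°C on medium lacking adenine and uracil.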
row,Substance,amyloid nucleation score
1,SNSHWIYWYTNPGQHRPSHR,inactive
2,MFLWRDCNGTN,inactive
3,FIITPTYIICQRLFY,inactive
4,MRSNSTVYGTFTRSNVLHIP,inactive
5,LWQNSDLSSSDEYGQRFGKR,-0.706 ± 1
6,KRMSKKALRLVVSYFSPS,inactive
7,CGLRIRWSNVLYSRRTCGFT,inactive
8,VRLSRAVILLAVIHLRWGLT,inactive
9,QCFCILDFMYWIHARSIM,inactive
10,YDLGIGNKHVRYLWGPARKK,inactive
11,VTFMIDFRASWALFHDRWWC,inactive
12,MPILLCLVHPPLYSSDPFQK,inactive
13,GSCFVKEVSGGHMLGS,inactive
14,TYIVAEANVRSVGDEQSMMN,inactive
15,GPSWVTHESRKCTCQARDKV,inactive
16,TTDLKC,inactive
17,IALIICEGLPRMRGSSGPVG,inactive
18,AWKTFFVIYSS,0.406 ± 0.19
19,AIYKGSWEPFGIDA,inactive
20,TVANTNRTALNLMLEMGLGL,inactive
21,LGIGVKYSTGWCFVIMSSAM,inactive
22,FQFCS,inactive
23,IESVRKHGGCTAFVSSWYVM,inactive

row,Substance,amyloid nucleation score
1,FGQDSPSVLTC,-0.381 ± 0.7
2,LNLQNVVYGTMSEHSASSVD,inactive
3,WTMSLLQFDLDTSTSTLTMV,inactive
4,SSQFTHEETGFCDVVPVVCG,inactive
5,VRNEYACNCTYMRIARLDE,0.319 ± 0.29
6,HSAYVVKWSSRTTPKFFSLW,inactive
7,RSRKKRCFLKFILKNFVWSV,inactive
8,RLPLPL,inactive
9,LQGVFRMSQISG,inactive
10,DRNSYVMCYPWGVVWCNHKS,1.03 ± 0.14
11,RDSFVFYVY,inactive
12,KYNAIVLVYPKSADCVKTLM,0.387 ± 0.36
13,HYYNSHSWATTTT,inactive
14,PDTLRRNRVSRFTFAKRCGL,-0.769 ± 0.98
15,SGKILQRPLSWLSCVMQVES,inactive
16,CVRFPANLSFGSDRKAKLS,inactive
17,CIPLLFWVWSSNVCVRLKLQ,inactive
18,LDLSSYVHSTLEPGQWKRSR,inactive
19,LGDALAEVNQDHADSGYRVT,inactive
20,IGMMYVIGIYLIGGNYSIR,inactive
21,NDEMVY,inactive
22,VALWGSWRRPWDAVAFDRTG,inactive
23,SMGTFNMVRLSGTWGMSAMY,0.757 ± 0.15

row,Substance,amyloid nucleation score
1,VGSNSDSVCCSPVVAGFQWT,1.07 ± 0.1
2,VANYGQVQHWYRGYVEDEGL,inactive
3,ISSYFNMCDLCVDVRHTYRR,inactive
4,IILQNFPNRKYMCLGAKMAS,inactive
5,YWRELDSIQCNLFRGQPFNL,inactive
6,DQGLNC,inactive
7,CVVVETLLNMRRSRY,inactive
8,WYDGQRFCRELYNCPSAPGL,inactive
9,IDLVLFSTCVNALVVESFGG,inactive
10,FISRVMGSSR,inactive
11,INYYFWTSGK,0.731 ± 0.3
12,VRLRDLN,inactive
13,LNYGSDLDSIYYSFTL,-0.896 ± 0.96
14,ITGGTPCGITTVWQKGAMG,inactive
15,FPSVIINLGISFFLSSELIV,1.08 ± 0.11
16,NWIVGSWCKVLSVVEKEW,0.101 ± 0.62
17,GVFERR,inactive
18,LLMLCRCKPYFFGFYLCWFR,inactive
19,SHVLWDGTWEVGGGGHKA,inactive
20,RFSCCYRPLLYNQKVEWWRG,inactive
21,FCEMHYRLDN,0.424 ± 0.17
22,DIQYWYTPVTKMTYSTNWFF,1.26 ± 0.1
23,YRDFDEDCVIL,inactive

row,Substance,amyloid nucleation score
1,TLVSQMPCNM,inactive
2,GSRDYCVVNSIESDNCFQGW,inactive
3,CKSIPWVFYWFLLLYGYL,inactive
4,YYKRYGGYPGNQHMSVGHRF,inactive
5,HRKSGMVIYFTVPWFMKRNC,inactive
6,SCDRVFNLDVNRWKLMRKTC,inactive
7,WRSTRIRTSWHTDTDFLSNG,inactive
8,ITVELTCGSGYYGTMTENQV,inactive
9,NYLVYSCDVRYSYMVSELAS,inactive
10,MYLGGKALIRPFPVYATAAW,inactive
11,FFYRVSVSLSRAKI,inactive
12,QMGVVNLRAKGQQCAQRQSK,inactive
13,NSQKVIYKPFEAIYVTGTLT,inactive
14,VQGKALAS,inactive
15,ILAHAHYVYVALARWPTYGY,-0.35 ± 0.98
16,LGVGMQRYMSWRRK,0.504 ± 0.29
17,CNVRFCIDFMIFMVISDSKD,1.11 ± 0.14
18,TSCRLRV,inactive
19,RHGSCMTVCVYSSMLSYRST,0.163 ± 0.31
20,STVKVSLYQNQYPNGFNS,1.66 ± 0.089
21,LDTSNMPTYGLKSEVSVIAR,inactive
22,AWYKFVGRVMRDPYMEARLA,inactive
23,LVRCSNTR,inactive

row,Substance,amyloid nucleation score
1,SCHSSSGGWEVSGNYRRGKL,inactive
2,DLRGETNSYSGVCQERK,0.104 ± 0.69
3,LISCAMGRELTYRSNSRRGR,inactive
4,SRNYLVSPIDAPEQQSCVEE,inactive
5,PLSVAFYGVTIR,0.056 ± 0.19
6,NCKLFFSFGM,1.49 ± 0.094
7,NCMFPGYLYNVDITLMDV,inactive
8,YSKRAHVFYES,-0.06 ± 0.36
9,QSLVPSFDPNLCQVGVLYCC,-0.654 ± 0.84
10,WNFIVFGFYLDGRILFISYL,-0.755 ± 0.7
11,KVGTVLWCFTCSAGHRECNG,2.75 ± 0.055
12,SWGNHYLRGLICYFLLFTDT,inactive
13,FSVMYRWRYFGDSAFWISVF,inactive
14,LFCRVWSFGVLMCFE,inactive
15,NRLNIFIYSFNVAVVSI,2.31 ± 0.082
16,DFYGCGFTFTRSFFRQWFIG,1.09 ± 0.11
17,FMGQFIYLSSRCNSSVDSEV,inactive
18,PRNHIRSLSM,inactive
19,TQNLNRRGKIRVVRDYIDYW,0.554 ± 0.15
20,LGESMRRVKVSVQIRIHMGQ,1.11 ± 0.16
21,GSFGPIFQWNTIGALGFFG,2.19 ± 0.059
22,STGRRPTWATQRLWLWRQQL,-0.091 ± 0.87
23,RLRVM,inactive

row,Substance,amyloid nucleation score
1,EIAVVRKVLYPYCRYVLICS,inactive
2,ISDLTHFRYRDVPNLLVRTK,inactive
3,FTNNI,inactive
4,LNSDIVVNLNIAWSYCIV,1.39 ± 0.068
5,WYGVSACYGWHNVAHSSRTR,inactive
6,GIGRDCNVSGALCQRAVANV,inactive
7,TRWGFVCNKTHVLGDMSIGM,inactive
8,SVWESHVWHAHTQI,inactive
9,TGRVLGYGLL,inactive
10,LFLDWALIFLV,inactive
11,LVVVR,inactive
12,SDIVCVKLEYT,inactive
13,KNTSCWAATSADQRRVDFRR,inactive
14,CYLNQSKYAARWNCGDNKME,inactive
15,VYCLSHNCMITSDNVRSIIF,inactive
16,FNIGFSSDSYAPWLFMICEM,inactive
17,DLVCTSLTRVAYRELIVWWF,inactive
18,HKASKLVYLQWCRHECWSLV,inactive
19,SPEPSVNRKHLVPLLPAAFE,inactive
20,QAVMKRAALVPTRTAKSLPS,inactive
21,YWNLIWWAKQWDVFTGEEAL,inactive
22,LFSSRYDLIDVNVRGVDYSQ,inactive
23,GVMVPTALLISNPSRRFHWL,inactive

row,Substance,amyloid nucleation score
1,SLLCNHFPGHI,inactive
2,TKCTYKLGYTLYTGVKDVVR,inactive
3,GGSEGQSVPAC,-0.241 ± 1.5
4,SKLCELLSLQTAVAYMMSGA,inactive
5,NHGATLFECSYCNCSLAFR,2.83 ± 0.081
6,EGGMTTFYFC,2.13 ± 0.093
7,KGSTSAVIGRYGWLRMRC,inactive
8,GVTCKHRPAKYVQDRMNF,inactive
9,YLEEARQYNLQRYWKDLKVL,inactive
10,SYLYLCRIKVDLPFWSDRLV,inactive
11,RNRLN,inactive
12,HVAIPTGLSKSNSQLYS,inactive
13,FCFSSVEKNWLQRVMFLRVS,inactive
14,LSAAFYDMETIGWISGSWVN,inactive
15,VGHFISYCNRIFSAKAIIVF,inactive
16,LFLFESQTCDSRVQNCISFG,inactive
17,KWKVAKVGDWQAAPTLGSHR,inactive
18,FICCMLIMKVNYDTRLISSM,inactive
19,LLLGDVVVMTEAYYIMSPVP,inactive
